Among the data in patent US20260242454A1 are EC50 values, retold here.

The target in test [1] is recombinant human TGF-β1 (human) (UniProt P01137). In words: ELISA, TGF-β1 coated on plate, anti-human IgG Fc-HRP detection.
For test [2], the target named is recombinant human TGF-β3 (human) (UniProt P10600). Kind of test: ELISA, TGF-β3 coated on plate, anti-human IgG Fc-HRP detection.
UniProt P10600, sequence (P10600 301-412 limits assumed): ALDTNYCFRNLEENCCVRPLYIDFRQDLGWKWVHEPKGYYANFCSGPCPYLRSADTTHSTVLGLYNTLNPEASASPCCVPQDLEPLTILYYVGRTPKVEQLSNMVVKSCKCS

UniProt P01137, sequence (P01137 279-390 limits assumed): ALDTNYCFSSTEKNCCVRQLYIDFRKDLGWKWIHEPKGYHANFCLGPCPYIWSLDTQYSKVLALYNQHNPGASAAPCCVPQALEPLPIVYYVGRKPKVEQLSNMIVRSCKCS

M7824: the EC50 in test [1] amounted to 2.08 nM; in test [2], 3.32 nM.
